The text below walks through data of patent US20190112361A1 (Genentech, published 2019).

The assay deals with T1, full-length human Tau (flTau) (human, UniProt P10636-8 1-441).
T1 construct: also called human Tau, longest isoform (441 aa)
Put plainly: direct ELISA, flTau coated at 1 µg/mL, hybridoma supernatant dilutions. The source says: Serum-free supernatants were harvested from stable hybridomas. The supernatants containing antibodies of interest were then screened by ELISA assays to characterize antibody properties and select antibodies for further development. The ELISA assays were used to determine the following: binding to full-length human Tau (flTau; SignalChem, Canada), binding to hyperphosphorylated flTau (Genentech, USA), binding to oligomeric versus monomeric preparations of flTau, and binding to certain antibody Tau epitope(s).
Coating was done overnight in phosphate-buffered saline (PBS) at 4° C. Plates were washed thoroughly with 0.05% Tween-20/PBS and then blocked with 1% bovine serum albumin (BSA) in 0.05% Tween-20/PBS for 1 hr at 37° C. The antibody contained in the hybridoma supernatant was then added at the indicated dilutions, and incubated for 2 hrs at 37° C. after which the plates were washed as described previously.
For the direct ELISAs, an AP-conjugated anti-mouse IgG secondary antibody (Jackson ImmunoResearch Laboratories, United Kingdom) was added at 1/6000 dilution in 0.05% Tween-20/PBS for 2 hr at 37° C. After the final wash, plates were incubated with p-nitrophenyl phosphate disodium hexahydrate (pNPP; Sigma-Aldrich, Switzerland) phosphatase substrate solution, and read at 405 nm using an ELISA plate reader (Tecan, Switzerland). Results are expressed as optical densities (O.D.).
A general note: ELISA stands for enzyme-linked immunosorbent assay.

T1 sequence (P10636 other isoform, or with tags, fused parts or gaps limits assumed): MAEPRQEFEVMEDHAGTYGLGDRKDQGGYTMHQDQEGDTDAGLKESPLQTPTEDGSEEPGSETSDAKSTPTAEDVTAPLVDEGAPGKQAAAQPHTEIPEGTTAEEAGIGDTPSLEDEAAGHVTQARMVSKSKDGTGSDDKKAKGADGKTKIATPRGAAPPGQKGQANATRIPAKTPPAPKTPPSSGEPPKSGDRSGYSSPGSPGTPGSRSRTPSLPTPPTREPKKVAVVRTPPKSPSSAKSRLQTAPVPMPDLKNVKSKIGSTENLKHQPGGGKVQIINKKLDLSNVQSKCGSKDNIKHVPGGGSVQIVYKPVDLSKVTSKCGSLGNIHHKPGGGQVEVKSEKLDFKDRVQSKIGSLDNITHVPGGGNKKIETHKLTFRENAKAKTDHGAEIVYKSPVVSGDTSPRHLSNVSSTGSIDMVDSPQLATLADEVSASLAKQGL

B1: 12A10-E8 (antibody, V domains shown)
VH: QIQLVQSGPELKKPGETVKISCKASGYTFTNYGMNWVKQAPGKGLKWMGWINMYTGEPTYGDDFKGRFVFSLETSVSTVYLQINNLKKEDTATFFCARGGRPDYWGQGTSVTVSS
VL: DVLMTQTPLSLPVSLGDQASISCRSSQSIVHSNGNTYLEWYLQKPGQSPKLLIYKVFNRFSGVPDRFSGSGSGTDFTLKINRVEAEDLGVYYCLQGSHVPYTFGGGTKLEIK
notes: hybridoma supernatant
Regarding B1, the binding result is “binds”.
